In patent publication US8202696 (MAX PLANCK GESELLSCHAFT ZUR FORDERUNG DER WISSENSCHAFTEN E V, dated 2012):

B2: MID1 B-box 1 (residues 110-165), yeast two-hybrid bait (other)
chain: TMTSAEKVLCQFCDQDPAQDAVKTCVTCEVSYCDECLKATHPNKKPFTGHRLIEPI
notes: also called BB1; isolated B-Box1; not shown: two-hybrid fusion partner; not described
B4: α4 protein, full-length, in the yeast two-hybrid system (other, human, UniProt P78318 2-339, looked up)
chain: AAEDELQLPRLPELFETGRQLLDEVEVATEPAGSRIVQEKVFKGLDLLEKAAEMLSQLDLFSRNEDLEEIASTDLKYLLVPAFQGALTMKQVNPSKRLDHLQRAREHFINYLTQCHCYHVAEFELPKTMNNSAENHTANSSMAYPSLVAMASQRQAKIQRYKQKKELEHRLSAMKSAVESGQADDERVREYYLLHLQRWIDISLEEIESIDQEIKILRERDSSREASTSNSSRQERPPVKPFILTRNMAQAKVFGAGYPSLPTMTVSDWYEQHRKYGALPDQGIAKAAPEEFRKAAQQQEEQEEKEEEDDEQTLHRAREWDDWKDTHPRGYGNRQNMG
notes: mature; also called alpha4; IGBP1 gene product; not shown: two-hybrid fusion partner

Assays:
[1] = target: T1, endogenous α4 of the transfected human cell lines (HeLa, U373MG) (UniProt P78318 2-339); test: cell-based or functional assay
T1 sequence (looked up): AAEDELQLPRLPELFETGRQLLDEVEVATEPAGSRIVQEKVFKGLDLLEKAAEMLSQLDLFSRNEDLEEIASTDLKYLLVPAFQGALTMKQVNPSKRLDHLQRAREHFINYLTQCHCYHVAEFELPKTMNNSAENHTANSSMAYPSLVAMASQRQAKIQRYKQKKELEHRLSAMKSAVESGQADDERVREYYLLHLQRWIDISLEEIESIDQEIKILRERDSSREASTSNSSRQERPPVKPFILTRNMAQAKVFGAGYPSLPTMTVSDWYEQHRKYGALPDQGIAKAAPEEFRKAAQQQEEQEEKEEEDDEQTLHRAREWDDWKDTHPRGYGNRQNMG

[2] = target: B4; test: yeast two-hybrid, comparison of the α4-affinities of MID1 peptides
[3] = target: B2; test: yeast two-hybrid, deletion studies with α4 (preliminary data)
HHARI = target: T2, HHARI (UniProt Q9Y4X5 1-557, limits assumed); test: yeast two-hybrid, growth on his- leu- trp- plate
T2 construct: Two-hybrid fusion protein; fusion partner not described
T2 sequence (Q9Y4X5 whole entry, the tested form may be a part): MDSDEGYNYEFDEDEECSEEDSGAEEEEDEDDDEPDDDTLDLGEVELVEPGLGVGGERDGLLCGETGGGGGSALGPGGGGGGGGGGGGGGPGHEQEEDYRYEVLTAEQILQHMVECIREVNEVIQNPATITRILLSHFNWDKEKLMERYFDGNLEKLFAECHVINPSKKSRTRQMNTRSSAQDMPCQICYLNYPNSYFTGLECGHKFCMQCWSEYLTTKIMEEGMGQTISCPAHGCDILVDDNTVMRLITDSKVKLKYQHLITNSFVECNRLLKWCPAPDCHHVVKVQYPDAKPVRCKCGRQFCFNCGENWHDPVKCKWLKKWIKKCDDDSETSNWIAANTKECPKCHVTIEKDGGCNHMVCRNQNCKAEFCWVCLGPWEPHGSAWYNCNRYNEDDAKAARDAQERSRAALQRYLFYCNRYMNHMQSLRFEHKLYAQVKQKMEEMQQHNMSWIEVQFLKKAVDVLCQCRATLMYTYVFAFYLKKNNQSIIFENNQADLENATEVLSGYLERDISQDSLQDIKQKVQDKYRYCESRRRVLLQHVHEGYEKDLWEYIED

PARKIN = target: T3, PARKIN (UniProt O60260 1-465, limits assumed); test: yeast two-hybrid, growth on his- leu- trp- plate
T3 construct: Two-hybrid fusion protein; fusion partner not described
T3 sequence (O60260 whole entry, the tested form may be a part): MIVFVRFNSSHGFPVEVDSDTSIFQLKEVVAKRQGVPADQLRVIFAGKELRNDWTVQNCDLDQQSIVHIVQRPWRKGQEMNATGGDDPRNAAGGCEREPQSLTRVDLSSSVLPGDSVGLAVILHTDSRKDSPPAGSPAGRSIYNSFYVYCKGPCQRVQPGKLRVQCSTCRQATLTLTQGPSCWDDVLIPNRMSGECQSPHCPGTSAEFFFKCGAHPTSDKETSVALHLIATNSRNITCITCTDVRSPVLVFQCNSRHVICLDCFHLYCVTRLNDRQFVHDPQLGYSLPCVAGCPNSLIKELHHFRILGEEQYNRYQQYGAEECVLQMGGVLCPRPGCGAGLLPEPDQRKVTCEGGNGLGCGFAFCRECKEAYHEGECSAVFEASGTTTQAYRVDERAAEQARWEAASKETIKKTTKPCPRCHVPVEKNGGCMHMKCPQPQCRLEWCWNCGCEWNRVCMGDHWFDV

B1: myc-tagged B-box 1 of the MID1 protein (peptide, not shown: small tags and cut ends)
peptide: TMTSAEKVLCQFCDQDPAQDAVKTCVTCEVSYCDECLKATHPNKKPFTGHRLIEPIPD
ratio between phosphorylated and dephosphorylated hFused-form (western blot) [1]: 3 ratio
ratio between phosphorylated and dephosphorylated hFused-form (western blot, repeat) [1]: 3 ratio

B2
fold increase of affinity for α4 compared to the full length MID1 protein [2]: 10 fold

B3: small part of α4 (44 amino acids), yeast two-hybrid deletion construct (peptide)
peptide: ERPPVKPFILTRNMAQAKVFGAGYPSLPTMTVSDWYEQHRKYGA
notes: The range 236-279 is inferred from the equal length of 44 residues; also called peptidic fragment of α4
strength of interaction relative to full-length α4 [3]: > 10 times

B4
binding result (HHARI): no binding
binding result (PARKIN): no binding
